Drawing on article PMC4354731, this text covers Km and kcat for one protein.

Substrate in data set [1]: COC1=C(OC)C(=O)C(C)=CC1=O
The data set is described as follows: succinate:Q0 oxidoreductase steady-state kinetics in membranes. The settings on record: [3Fe-4S], [4Fe-4S], [2Fe-2S] clusters; FAD; heme b. Format: biochemical, Escherichia coli.

Substrate in data set [2]: CC(C)=CCC1=C(O)C(=O)c2ccccc2C1=O
As to the kind of experiment: lapachol:fumarate oxidoreductase steady-state kinetics in membranes. Format: biochemical, Escherichia coli. The note with it: [3Fe-4S], [4Fe-4S], [2Fe-2S] clusters; FAD; heme b.

B1: succinate dehydrogenase (SdhCDAB), SdhB subunit (Escherichia coli K-12) (protein)
chain 1: MRLEFSIYRYNPDVDDAPRMQDYTLEADEGRDMMLLDALIQLKEKDPSLSFRRSCREGVCGSDGLNMNGKNGLACITPISALNQPGKKIVIRPLPGLPVIRDLVVDMGQFYAQYEKIKPYLLNNGQNPPAREHLQMPEQREKLDGLYECILCACCSTSCPSFWWNPDKFIGPAGLLAAYRFLIDSRDTETDSRLDGLSDAFSVFRCHSIMNCVSVCPKGLNPTRAIGHIKSMLLQRNA
chain 2: MIRNVKKQRPVNLDLQTIRFPITAIASILHRVSGVITFVAVGILLWLLGTSLSSPEGFEQASAIMGSFFVKFIMWGILTALAYHVVVGIRHMMMDFGYLEETFEAGKRSAKISFVITVVLSLLAGVLVW
chain 3: MVSNASALGRNGVHDFILVRATAIVLTLYIIYMVGFFATSGELTYEVWIGFFASAFTKVFTLLALFSILIHAWIGMWQVLTDYVKPLALRLMLQLVIVVALVVYVIYGFVVVWGV
In the case of B1, in data set [1], the Km (usually the concentration of substrate that gives half-maximal velocity) worked out at 150 µM; the kcat (as a rule, the number of substrate molecules converted per active site and unit of time at saturation) stood at 33.9 s⁻¹. Moreover, in data set [2], the Km is 100 µM and the kcat amounted to 11.9 s⁻¹.
